Test system: MS2 coat protein
Assay: apparent KD of MS2 coat protein; designed switch direction (-1 OFF switch, 1 ON switch): -1; higher = weaker reporter binding
Procedure, shortened: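 The buffer was Tris-HCl pH 7.5 with KCl, MgCl2, BSA, DTT, tRNA and Tween-20. In it, SNAP-549-labelled MS2 coat protein was titrated in doubling steps from 0.7 or 1.5 nM to 3 µM over chip-bound RNA switches transcribed by stalled E. coli RNA polymerase on Illumina chips. Apparent KD is the per-design median over clusters of curve fits to normalised fluorescence.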

[1] = Eterna round: R95, input ligand: FMN 200 uM
[2] = Eterna round: R95, input ligand: microRNA oligo, concentration not stated
[3] = Eterna round: R95, input ligand: none
[4] = input ligand: microRNA oligo, concentration not stated

Sequence | apparent KD of MS2 coat protein (input ligand: FMN 200 uM) [nM] | apparent KD of MS2 coat protein (input ligand: none) [nM] | apparent KD of MS2 coat protein [1] [nM] | apparent KD of MS2 coat protein [2] [nM] | apparent KD of MS2 coat protein [3] [nM] | apparent KD of MS2 coat protein [4] [nM]
GGUCCUGAUGAUUUCCUAGACAUGAGGAUCACCCAUGUUUAUUUAUUUUGUUUUUAGCUUUUUGGUCGUCAAUAAUA [Mod-Hoo-honey-4] (Eterna round: R97, puzzle: Sensor, turn-off variant 1) | 100 | 99.6 | – | – | – | –
GGUCGAAAACAGCUCCGCGCUGCCCUCGACCGCUCAUUUACAUGAGGAUCACCCAUGUUUUUUGCUUGUCUUGUUUC [Esrionus] (puzzle: Sensor v3, turn-off variant 2) | – | – | 18.3 | 80.1 | 22.9 | –
GGUCGACAUGAGGAUCACCCAUGUCAGGAUAUCUACAUUGAAGCUUCGGCUUCAAUGUAGAGAAGGGACAUAAU [E1/14-B1] (Eterna round: R97, puzzle: Exclusion 1) | 35.3 | 30.1 | – | – | – | –
GGUCGAGAACAGCUCCGCGCCGCCCUCGACCGCUCAUUUACAUGAGGAUCACCCAUGUUUUUUGCUUGUCUUGUUUC [Ceerar] (puzzle: Sensor v3, turn-off variant 2) | – | – | 20.6 | 98.4 | 23.4 | –
GGUCGAGAAGUUAGGAUAUCGAUAAAACAGAAAUUUGAGAAGGGACUUGAGGAUCACCCAAGUUAUUGGUUCUC [Anaranle] (Eterna round: R97, puzzle: Brourd's mod of Exclusion 4) | 17.8 | 19.6 | – | – | – | –
GGUCGGCGAGGAUAUACAUGAGGAUCACCCAUGUGAUUUAGUGCACGCGUACGUGUACGUAGAAGGCGCUGACG [JL-ex3-3.27 salish99 mod] (puzzle: Exclusion 3) | – | – | 127 | 14 | 11.3 | –
GGUCUUCAAGUCAGGAUAUCGUCUAAUAGAUCUAACGAGAAGGGACAUGAGGAUCACCCAUGUCGUCUCAUCAG [Ex4 #19] (Eterna round: R97, puzzle: Brourd's mod of Exclusion 4) | 34.5 | 16.5 | – | – | – | –
GGUGAGCUACUAGGAUAUCUAGGCUAUUUACCUAGAGAAGGAGUCGCCUUCCCUCGCGUAGAUACAUGAGGAUCACCCAUGUAU [Eternabot solution 50] (Eterna round: R96, puzzle: Exclusion NG 1) | 16.9 | 18.1 | – | – | – | 14.1
GGUGAGCUAGGAUAUGCUUUGGGCCCGCAUUCCUUCGAUAAACUUGAGGAUCACCCAAGUAGAAGGAGCUUGCC [salish99_ex2_r4_031] (Eterna round: R97, puzzle: Exclusion 2) | 30.4 | 17 | – | – | – | –
GGUGCGUAUGUGAGGAUAUGCUGGUCCUUGGAUCAGCAGAAGGCACAUGAGGAUCACCCAUGUGGUGUCGUCCC [salish99_Bmod_Ex4_021] (puzzle: Brourd's mod of Exclusion 4) | – | – | – | 241 | – | –
GGUGCGUAUGUGAGGAUAUGCUGGUCCUUGGCUCGGCAGAAGGCACAUGAGGAUCACCCAUGUGGUGUCGUUCC [salish99_Bmod_ex4_055] (puzzle: Brourd's mod of Exclusion 4) | – | – | – | 42.5 | – | –
GGUGCGUUUGUGAGGAUAUGCUGGUCCUUGGAUCUGCAGAAGGCACAUGAGGAUCACCCAUGUGGUGUCGUACC [salish99_Bmod_Ex4_036] (puzzle: Brourd's mod of Exclusion 4) | – | – | – | 208 | – | –
GGUGGACAUGAGGAUCACCCAUGUGAGGAUAUCGGCUGGCUAGCGGCGGAUGGCUUCUCGAGAAGGCGCAUAGU [Exclusion 1 V81] (puzzle: Exclusion 1) | – | – | – | 62.7 | – | –
GGUGGACAUGAGGAUCACCCAUGUGAGGAUAUCGGCUGGCUAGUGGCGGAUGGCUUCUCGAGAAGGCGCAUAGU [Exclusion 1 V80] (puzzle: Exclusion 1) | – | – | – | 50.2 | – | –
GGUGGGCUAGGAUAUGCUUUGGGAAAGCAUUCCUUCGAUAAACUUGAGGAUCACCCAAGUAGAAGGAGCUUGCC [salish99_ex2_r4_020] (Eterna round: R97, puzzle: Exclusion 2) | 16.4 | 13.4 | – | – | – | –
GGUUCGAAUGUGAGGAUAUGCUGGUCCUUGGAUCAGCAGAAGGCACAUGAGGAUCACCCAUGUGGUAACGGACC [Mat - Exclusion 4 - Eli Mod - D36] (Eterna round: R97, puzzle: Brourd's mod of Exclusion 4) | 178 | 357 | – | – | – | –

Sequence | apparent KD of MS2 coat protein (input ligand: FMN 200 uM) [nM] | apparent KD of MS2 coat protein (input ligand: none) [nM] | apparent KD of MS2 coat protein [1] [nM] | apparent KD of MS2 coat protein [2] [nM] | apparent KD of MS2 coat protein [3] [nM] | apparent KD of MS2 coat protein [4] [nM]
GGUUGACAUGAGGAUCACCCAUGUGAGGAUAUGCGAGAGAAAAAAGUGAGGAAGAGAAGCAGAAGGCGCUGUCG [salish99-ex1_r3_014] (puzzle: Exclusion 1) | – | – | 68.7 | 45.1 | 106 | –
GGUUGACAUGAGGAUCACCCAUGUGAGGAUAUGCGAGAGAAAAAAGUGAGGAAGUAAUGCAGAAGGCGCUGUCG [salish99-ex1_r3_017] (puzzle: Exclusion 1) | – | – | 132 | 86.4 | 210 | –
GGUUGGCGAGGAUAUACAUGAGGAUCACCCAUGUGAGAAAAAAAAGUGAGGAAGAAAAGUAGAAGGCGCUGACG [salish99_ex3_r3_015] (puzzle: Exclusion 3) | – | – | 67.7 | 37.7 | 35.6 | –
GGUUGGCGAGGAUAUACAUGAGGAUCACCCAUGUGAGAAAAUAGUGAGGAAAAGAAAAGUAGAAGGCGCUGACG [Mat - Exclusion 3 - Mod of Salish D54] (puzzle: Exclusion 3) | – | – | 320 | 38.8 | 41.5 | –
GGUUGGCGAGGAUAUACAUGAGGAUCACCCAUGUGAGAGAAAGAAGUGAGGAAGAAAAGUAGAAGGUGCUGACG [salish99_ex3_r3_055] (puzzle: Exclusion 3) | – | – | 56.6 | 63.2 | 82.7 | –
GGUUGGCGAGGAUAUACAUGAGGAUCACCCAUGUGAGAGAAGAAAGUGAGGAAGAAAAGUAGAAGGCGCUGACG [salish99_ex3_r3_004] (puzzle: Exclusion 3) | – | – | 133 | 59 | 62.4 | –
GGUUGGCGAGGAUAUACAUGAGGAUCACCCAUGUGAGAGAUAAAAGUGAGGAAGAAAAGUAGAAGGCGCUGACG [salish99_ex3_r3_012] (puzzle: Exclusion 3) | – | – | 155 | 29.5 | 69 | –
GGUUGGCGAGGAUAUACAUGAGGAUCACCCAUGUGAGAGAUACUAGUGAGGUCGAUUGGUAGAAGGCGCUGACG [JL-ex3-2.02 salish99 mod] (puzzle: Exclusion 3) | – | – | 97.8 | 95.5 | 135 | –
GGUUUGCAGCAGGAUAUCCAUCCGCGGUAUGGUGGAGAAGGGCUGACAUGAGGAUCACCCAUGUGCGUCCUAGG [salish99_ex6_r4_017] (Eterna round: R97, puzzle: Exclusion 6) | 58.6 | 27.6 | – | – | – | –
GUAAAAAAAAAGGAUAUCGAACUUAUUAUUUAACGAGAAGGAUGAACAUGAGGAUCACCCAUGUGGUAUCAUGG [test] (puzzle: Exclusion 6) | – | – | 92.3 | 143 | 213 | –
GUAAACGAUCAGGAUAUAUCAAAUCAUAGCUUGAUAGAAGGGAUCACAUGAGGAUCACCCAUGUGAUCUUCUUU [jl-ex6-4.15 ViennaUCT mod] (Eterna round: R97, puzzle: Exclusion 6) | 13.2 | 13.9 | – | – | – | –
GUAAACGCAGAGGAUAUUUCAGAUCAAAGCUGCAAAGAAGGCUGCACAUGAGGAUCACCCAUGUGGUCUUCAAG [Mat - Exclusion 6 - JL Mod - D10] (Eterna round: R97, puzzle: Exclusion 6) | 297 | 24.7 | – | – | – | –
GUAAAGUGAGGAUAUGGUAAAUUAAUUAUUAAUUAAUUAAUCCAGAAGGCACAUGAGGAUCACCCAUGUAUAUG [Mat - Exclusion 4 - D88] (puzzle: Exclusion 4) | – | – | – | 30 | – | –
GUAACAACUAGAGGAUAUCAGCACGAUUAGUGCUGAGAAGGCUAGAGUUACAUGAGGAUCACCCAUGUCUAGAGAUCAUUAAUU [ENG1/13-A1] (Eterna round: R96, puzzle: Exclusion NG 1) | 155 | 79.7 | – | – | – | 53.2
GUAAGAUCCGUCAGGAUAUAUGCCCAAGGAGGGACGUAGAAGGGACAUGAGGAUCACCCAUGUACCUCAAGGAU [Eternabot (L1) Solution 97] (Eterna round: R97, puzzle: Brourd's mod of Exclusion 4) | 17.6 | 16.1 | – | – | – | –
GUAAUGUGAGGAUAUGGUAAAGAUAAGAUGAUGAAAGAACUCCAGAAGGCACAUGAGGAUCACCCAUGUAGAUG [Mat - Exclusion 4 - Mod of JL - D27] (puzzle: Exclusion 4) | – | – | – | 26.1 | – | –
